Assays:
[1] = test system: THP-1 cells; assay: Differentiation (CD11B and CD14 staining), THP-1; format: cell-based, human; details: 96-hours post anti-EGFL7 treatment
Experimental: FIG. 24A-24G. EGFL7 prevents activation of NOTCH signaling in AML cells. (FIG. 24A) Overview of experiments using DLL4-FC and IgG-FC control coated plates to induce NOTCH activation. (FIG. 24B) THP-1 cells were pre-treated with 10 μM γ-secretase inhibitor (AVA), 100 μg/ml anti-EGFL7 antibody or 0.25 μM rEGFL7 for 30 min, then transferred to IgG-Fc or DLL4-Fc coated plates. After 4 h of incubation total RNA from THP-1 cells was extracted for qRT-PCR analysis of HES1 with β-ACTIN as internal control. ^###P<0.001 DLL4-FC vs IgG-FC; ***P<0.001 DLL4+AVA, DLL4+rEGFL7, and DLL4+anti-EGFL7 vs DLL4-FC. […] THP-1 cells were treated with the indicated concentration of anti-EGFL7 (@E7) then assessed for apoptosis using (FIG. 24D) AnnexinV+ staining and FACS; *P<0.05 (FIG. 24E) Immuno-blotting for PARP1 and Casp3 cleavage. (FIG. 24F) Cell differentiation was assessed by CD11B and CD14 staining 96-hours post anti-EGFL7 treatments; *P<0.05. (FIG. 24G) To determine whether activation of NOTCH by DLL4-Fc could be accentuated by anti-EGFL7 treatment, THP-1 cells were first treated with anti-EGFL7 (100 μg/ml) and then cultured on DLL4-FC or IgG-Fc coated plates and then assessed for apoptosis using AnnexinV+ staining and FACS. *P<0.05 DLL4-Fc and anti-EGFL7; vs DLL4-FC+anti-EGFL7. […]

[2] = test system: AML cell lines; assay: Differentiation (CD11b expression) in AML cell lines; format: cell-based, human; details: vs IgG-treated controls
Experimental: FIG. 10. Induced differentiation in AML cell lines treated with anti-EGFL7. Differentiation analysis was evaluated by CD11b expression. CD11b is depicted as the ratio of the CD11b expression value in the @E7 treated samples to CD11b expression value of the IgG-treated controls. * indicates P<0.05, ** indicates P<0.01.
For the evaluation of apoptosis, cells were stained with Annexin V and 7-AAD as previously described^16, 21 For the evaluation of cell proliferation, AML cell lines were incubated with BrdU, fixed, permeabilized and stained with APC-conjugated anti-BrdU antibody, according to the instructions of the manufacturer (BD Biosciences) and as previously described^16, 21 The proliferating fraction of the cells (i.e., the BrdU positive cells) was evaluated with flow cytometry (LSRII, BD Biosciences). For cell differentiation analysis, cells were stained with an anti-CD11B antibody (BD Biosciences) and analyzed by flow cytometry.

B1: Parsatuzumab: Anti-human EGFL7 therapeutic antibody (Parsatuzumab) obtained from Creative Biolabs; blocking monoclonal antibody (antibody, chains of the INN, looked up, V domains shown)
VH: EVQLVESGGGLVQPGGSLRLSCAASGYTFIDYYMNWVRQAPGKGLEWVGDINLDNSGTHYNQKFKGRFTISRDKSKNTAYLQMNSLRAEDTAVYYCAREGVYHDYDDYAMDYWGQGTLVTVSS
VL: DIQMTQSPSSLSASVGDRVTITCRTSQSLVHINAITYLHWYQQKPGKAPKLLIYRVSNRFSGVPSRFSGSGSGTDFTLTISSLQPEDFATYYCGQSTHVPLTFGQGTKVEIK
[1]
  CD11B and CD14 expression: increases were found in both these markers
[2]
  differentiation (CD11b expression): increased differentiation

From patent US11702469B2, “Recombinant EGFL7, EGFL7 antibodies, and uses thereof” (Ohio State Innovation Foundation, priority 2017, dated 2023)
